Tests used:
human C16orf54 = biological target: T1, human C16orf54 (Homo sapiens, UniProt Q6UWD8); assay: Flow cytometry reactivity with sarcoma cells expressing human C16orf54 (fold change over isotype); format: binding; details: for binding to human C16orf54 (flow cytometry): sarcoma cells expressing human C16orf54, 10 μg/ml antibody
T1 construct: expressed in transfected cells; host or cells: murine sarcoma cells (D42M1-huC16orf54)
T1 sequence (Q6UWD8 1-224): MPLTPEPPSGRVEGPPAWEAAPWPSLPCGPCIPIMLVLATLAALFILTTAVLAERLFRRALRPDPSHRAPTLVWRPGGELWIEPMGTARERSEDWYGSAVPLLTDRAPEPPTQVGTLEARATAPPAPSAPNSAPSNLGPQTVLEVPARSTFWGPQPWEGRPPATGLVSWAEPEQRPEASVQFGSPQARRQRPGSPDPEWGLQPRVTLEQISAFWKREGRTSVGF
Method: Anti-C16orf54 antibodies which bound to human C16orf54 were tested for their reactivity with human C16orf54 and their crossreactivity with C16orf54 from cynomolgous monkeys (cyno C16orf54) using flow cytometry. Sarcoma cells transfected with and expressing human C16orf54 or cyno C16orf54 were washed with PBS with 0.1% BSA, incubated with FcX receptor blocking solution (BioLegend) for 15 minutes, incubated with 10 μg/ml of anti-C16orf54 antibody for 1 hour at 4° C., washed twice with PBS with 0.1% BSA, incubated with 20 μg/ml of R-Phycoerythrin-AffiniPure F(ab′)2 Fragment Goat Anti-Mouse IgG, Fcγ Fragment Specific (Jackson ImmunoResearch) for 30 minutes at 4° C., washed twice with PBS with 0.1% BSA, incubated with the viability dye TO-PRO-3 iodide (Life Technologies), and immediately analyzed on a MACSQuant Analyzer instrument (Miltenyi). For each cell line and anti-C16orf54 antibody, a fold change was derived by dividing the median fluorescence intensity for Phycoerythrin in the live cell population for the anti-C16orf54 antibody by the median fluorescence intensity for Phycoerythrin in the live cell population for the IgG isotype control antibody.

[1] = test system: human erythroid and myeloid progenitors (normal human bone marrow); assay: Colony forming unit (CFU) progenitor cell assays; format: cell-based; details: for BFU-E / CFU-E / CFU-GEMM / CFU-GM / Total CFC / Total Erythroid: colonies after 14 days; for direct effect on colony number or colony size of bone marrow progenitors: 0.032-100 μg/ml added directly into the methylcellulose matrix, 14 days; for indirect effect on colony number or colony size of progenitors: 0.032-100 μg/ml, 24 hours liquid culture, then methylcellulose matrix
Method: Colony forming unit (CFU) assays were performed to establish if there is binding of anti-C16orf54 antibodies to various progenitor cells including: CFU-E: colony forming unit erythroid (erythroid colony forming cells); BFU-E: burst forming unit erythroid (earliest known erythroid precursor cells); CFU-GM: colony forming unit granulocyte/macrophage (granulocyte-macrophage colony forming cells); and CFU-GEMM: colony forming unit granulocyte, erythrocyte, monocyte/macrophage, megakaryocyte (most primitive colony-forming cells). […] Clogenic progenitors of the human erythroid and myeloid lineages were set up in methylcellulose-based medium. All test antibodies and reagents were added to the medium at indicated concentrations. Triplicate cultures were initiated for each condition. Following 14 days in culture myeloid and erythroid colonies were assessed microscopically and scored. For these assays, anti-C16orf54 antibodies were evaluated for their direct and indirect effects on human erythroid and myeloid progenitor proliferation. […] Indirect effects on progenitors were assessed by incubating the cells with these antibodies in a liquid culture for 24 hours and subsequent culture of these cells in the methylcellulose matrix.

[2] = test system: human C16orf54 extracellular domain peptides; assay: C16orf54 peptide ELISA, human extracellular domain peptides; format: binding; details: human, cyno, or mouse extracellular domain peptides, not told apart; 10 μg/ml antibody
Method: Anti-C16orf54 antibodies which bind to human C16orf54, including antibodies that are crossreactive with cyno C16orf54, were tested for their binding to various peptides derived from C16orf54 in a peptide ELISA. A 384-well high binding black microplate (Greiner) was incubated with 2 μg/ml of protein (human, cyno, or mouse extracellular domain peptides) for 16 hours, incubated for 1 hr with a blocking buffer (PBS with 5% Fetal Bovine Serum), washed four times with TBS with Tween, incubated for 1 hour with 10 μg/ml of anti-C16orf54 antibody, washed four times with TBS with Tween, incubated for 1 hour with 10 μg/ml of Peroxidase-AffiniPure Goat Anti-Mouse IgG, Fcγ Fragment Specific (Jackson ImmunoResearch), washed four times with TBS with Tween, and peroxidase was detected with a luminometer (Molecular Devices) upon addition of SuperSignal® ELISA Pico Chemiluminescent Substrate (Thermo Scientific). The luminescence signal was determined.

[3] = test system: KG-1 (acute myeloid leukemia) xenograft; format: in vivo, NOD-SCID mice; details: for tumor growth inhibition (in words) / tumor growth inhibition: KG-1 xenograft; for tumor growth inhibition (in words): compared to control IgG, antibodies weekly; for tumor growth inhibition: treatment initiated at 92 mm^3, HB121 IgG isotype negative control; for TGI (tumor growth inhibition) / Mean (tumor volume): Table 42, KG-1 AML model, NOD-SCID mice, weekly administration; for Mean (tumor volume): in mm³ (unit assumed)
Method: Subcutaneous tumors are generated by injection of 1×10^7 cancer cells in a mixture of PBS (without magnesium or calcium) and BD Matrigel™ (BD Biosciences) at a 1:1 ratio in the right flank of female SCID or nu^−/− mice. The injected total volume per mouse is […] with 50% being Matrigel (BD Biosciences). Mice are randomized once tumors reach a size between 65-200 mm^3. Antibodies are administered weekly, and body weights and tumors are measured once and twice weekly, respectively. Tumor volume is calculated as described (van der Horst et al. (2009) Neoplasia 11: 355-364). As a negative control, mice are injected with either purified mouse IgG or PBS; or a purified monoclonal antibody that recognizes an antigen other than C16orf54.
Anti-C16orf54 antibodies were tested for their anti-tumor activity in an animal-tumor model. For these studies, the cell line KG-1 (acute myeloid leukemia) was obtained from ATCC and cultured according to the suppliers' protocols. Animals were obtained from Taconic (Hudson, N.Y.). Studies were conducted with anti-C16orf54 antibodies and antibody-drug conjugates (ADCs) of these antibodies.
In these experiments, 4-6 week-old immunodeficient NOD-SCID female mice were used for the KG-1 tumor model. Mice were subcutaneously injected on the right flank with 6×10^6 viable cells (KG-1) in a mixture of PBS (without magnesium or calcium) and BD Matrigel™ (BD Biosciences). Once the tumor reached a size between 65-200 mm^3 mice were randomized. Anti-C16orf54 antibodies were administered weekly, and bodyweights and tumors were measured once and twice weekly, respectively. Tumor volume was calculated as described (van der Horst et al., supra). Experiments were performed on groups of at least eight animals per experimental point.
Statistical significance between treatment and control groups was calculated using the Graphpad Prism® software package and applying Student's two-tailed t-test. A p-value of less than 0.05 was considered significant.

B1: R29-7-1C: murine anti-C16orf54 monoclonal antibody, IgG2a; VH SEQ ID NO: 8, VL SEQ ID NO: 10 (antibody, V domains shown)
VH: MRVLILLWLFTAFPGILSDVQLQESGPGLVKPSQSLSLTCTVTGYSITSDYAWNWIRQFPGNKLEWMGYISYSGSIRYNPSLKSRISITRDTSKNQFFLQLNSVTTEDTATYYCAREKYDNYYYAMDYWGQGTSVTVSS
VL: MDSQAQVLMLLLLWVSGTCGDIVMSQSPSSLAVSVGEKVTLSCKSSQNLLYSTNQKNYLAWYQQKPGQSPKLLIYWASTRESGVPDRFTGSGSGTDFTLTISSVKAEDLAVYYCQQYYSYRTFGGGTKLEIK
modifications: R29-7-1C heavy chain variable region; R29-7-1C light chain variable region
- binding to C16orf54-expressing cells (dual binders) (human C16orf54): bind to C16orf54-expressing cells
- binding to human C16orf54 (flow cytometry) (human C16orf54): bind human C16orf54
- BFU-E ([1]; 0.032 μg/ml): 31 +/− 2
- CFU-E ([1]; 0.032 μg/ml): 8 +/− 2
- CFU-GEMM ([1]; 0.032 μg/ml): 1 +/− 1
- CFU-GM ([1]; 0.032 μg/ml): 45 +/− 3
- Total CFC ([1]; 0.032 μg/ml): 83 +/− 4
- Total Erythroid ([1]; 0.032 μg/ml): 38 +/− 4
- BFU-E ([1]; 0.8 μg/ml): 31 +/− 2
- CFU-E ([1]; 0.8 μg/ml): 8 +/− 2
- CFU-GEMM ([1]; 0.8 μg/ml): 1 +/− 1
- CFU-GM ([1]; 0.8 μg/ml): 42 +/− 4
- Total CFC ([1]; 0.8 μg/ml): 82 +/− 3
- Total Erythroid ([1]; 0.8 μg/ml): 39 +/− 4
- BFU-E ([1]; 4 μg/ml): 32 +/− 2
- CFU-E ([1]; 4 μg/ml): 7 +/− 2
- CFU-GM ([1]; 4 μg/ml): 44 +/− 4
- Total CFC ([1]; 4 μg/ml): 82 +/− 6
- Total Erythroid ([1]; 4 μg/ml): 38 +/− 3
- BFU-E ([1]; 20 μg/ml): 28 +/− 5
- CFU-E ([1]; 20 μg/ml): 8 +/− 2
- CFU-GEMM ([1]; 20 μg/ml): 1 +/− 1
- CFU-GM ([1]; 20 μg/ml): 40 +/− 5
- Total CFC ([1]; 20 μg/ml): 76 +/− 8
- Total Erythroid ([1]; 20 μg/ml): 36 +/− 4
- BFU-E ([1]; 100 μg/ml): 30 +/− 3
- CFU-E ([1]; 100 μg/ml): 8 +/− 3
- CFU-GEMM ([1]; 100 μg/ml): 1 +/− 1
- CFU-GM ([1]; 100 μg/ml): 44 +/− 4
- Total CFC ([1]; 100 μg/ml): 82 +/− 4
- Total Erythroid ([1]; 100 μg/ml): 38 +/− 4
- direct effect on colony number or colony size of bone marrow progenitors [1]: no effect on colony number or colony size of bone marrow progenitors
- indirect effect on colony number or colony size of progenitors [1]: no effect on colony number or colony size
- binding to peptides derived from the extracellular domain of C16orf54 (peptide ELISA) [2]: bind to the various peptides derived from the extracellular domain (ECD) of C16orf54
- tumor growth inhibition (in words) [3]: inhibitors of tumor growth
- tumor growth inhibition [3]: 69%
- TGI (tumor growth inhibition) [3]: −8%
- Mean (tumor volume) [3]: 2813.4

B2: R29-67-7A: murine anti-C16orf54 monoclonal antibody, IgG2a; VH SEQ ID NO: 12, VL SEQ ID NO: 14 (antibody, V domains shown)
VH: MRVLILLWLFTAFPGILSDVQLQESGPGLVKPSQSLSLTCTVTGYSITSDYAWNWIRQFPGNKLEWMGYINYSGRTRYNPSLNSRISLTRDTSTNQFFLQLNSVTTEDTATYYCARENYDYEFYAMDYWGQGTSVTVSS
VL: MESQAQVLMLLLLWVSGTCGDIVMSQSPSSLAVSVGEKVTMSCKSSQNLLYSSNQKNYLAWYQQKPGQSPKLLIYWASTRESGVPDRFTGSGSGTDFTLTISSVKAEDLAVYYCQQYYIYRTFGGGTKLEIK
modifications: R29-67-7A heavy chain variable region; R29-67-7A light chain variable region
- binding to C16orf54-expressing cells (dual binders) (human C16orf54): bind to C16orf54-expressing cells
- binding to human C16orf54 (flow cytometry) (human C16orf54): bind human C16orf54
- BFU-E ([1]; 0.032 μg/ml): 28 +/− 2
- CFU-E ([1]; 0.032 μg/ml): 7 +/− 2
- CFU-GM ([1]; 0.032 μg/ml): 39 +/− 3
- Total CFC ([1]; 0.032 μg/ml): 74 +/− 4
- Total Erythroid ([1]; 0.032 μg/ml): 35 +/− 1
- BFU-E ([1]; 0.8 μg/ml): 32 +/− 3
- CFU-E ([1]; 0.8 μg/ml): 7 +/− 2
- CFU-GM ([1]; 0.8 μg/ml): 43 +/− 5
- Total CFC ([1]; 0.8 μg/ml): 81 +/− 6
- Total Erythroid ([1]; 0.8 μg/ml): 38 +/− 5
- BFU-E ([1]; 4 μg/ml): 30 +/− 2
- CFU-E ([1]; 4 μg/ml): 9 +/− 2
- CFU-GM ([1]; 4 μg/ml): 43 +/− 2
- Total CFC ([1]; 4 μg/ml): 81 +/− 1
- Total Erythroid ([1]; 4 μg/ml): 39 +/− 3
- BFU-E ([1]; 20 μg/ml): 33 +/− 3
- CFU-E ([1]; 20 μg/ml): 6 +/− 2
- CFU-GEMM ([1]; 20 μg/ml): 1 +/− 1
- CFU-GM ([1]; 20 μg/ml): 40 +/− 1
- Total CFC ([1]; 20 μg/ml): 79 +/− 4
- Total Erythroid ([1]; 20 μg/ml): 39 +/− 3
- BFU-E ([1]; 100 μg/ml): 32 +/− 2
- CFU-E ([1]; 100 μg/ml): 7 +/− 2
- CFU-GM ([1]; 100 μg/ml): 43 +/− 6
- Total CFC ([1]; 100 μg/ml): 83 +/− 5
- Total Erythroid ([1]; 100 μg/ml): 39 +/− 3
- direct effect on colony number or colony size of bone marrow progenitors [1]: no effect on colony number or colony size of bone marrow progenitors
- indirect effect on colony number or colony size of progenitors [1]: no effect on colony number or colony size
- binding to peptides derived from the extracellular domain of C16orf54 (peptide ELISA) [2]: bind to the various peptides derived from the extracellular domain (ECD) of C16orf54
- tumor growth inhibition (in words) [3]: inhibitors of tumor growth
- tumor growth inhibition [3]: 70%
- TGI (tumor growth inhibition) [3]: 6%
- Mean (tumor volume) [3]: 3221.4

Reference: patent US20150231240A1, “ANTI-C16ORF54 ANTIBODIES AND METHODS OF USE THEREOF” (priority 2012, published 2015)
